These results are taken from patent US20200102347A1 (AUCTUS BIOLOGIES, published 2020).

The term Kd denotes a measure of binding affinity in units of concentration. One may read the kon as a measure of how fast the partners come together. As usually defined, the koff is the rate constant with which the complex falls apart. Read a high koff as fast dissociation.

Assay [1] addresses T1, NativeRPtag(large)_with_Tags_and_Cys (Thermoanaerobacter tengcongensis).
T1 construct: Unlabeled in anisotropy assays; coupled through the engineered N-terminal Cys to SulfoLink agarose or maleimide plates in column, pull-down and ELISA assays
T1 chain: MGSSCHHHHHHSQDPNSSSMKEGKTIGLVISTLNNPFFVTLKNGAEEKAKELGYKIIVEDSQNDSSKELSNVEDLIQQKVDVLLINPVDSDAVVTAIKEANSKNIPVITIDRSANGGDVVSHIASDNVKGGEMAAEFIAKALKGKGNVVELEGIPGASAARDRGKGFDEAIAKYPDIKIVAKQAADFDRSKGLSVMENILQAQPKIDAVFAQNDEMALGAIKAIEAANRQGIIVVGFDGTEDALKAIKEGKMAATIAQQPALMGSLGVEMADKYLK
The experiment in a line: fluorescence anisotropy. On the technique in general: In fluorescence polarisation assays a small probe gives low polarisation when free and higher when bound to something large.

In assay [2] the target is T1, NativeRPtag(large)_with_Tags_and_Cys. The experiment in a line: calculated from koff and Kd.
For assay [3] the target is unchanged. Put plainly: fluorescence anisotropy, competitor chase.
For assay [4] the target is unchanged. Put plainly: fluorescence anisotropy, association kinetics.

No end group written: not given here. *: point of attachment. RhodamineB = CCN(CC)c1ccc2c(-c3ccccc3C(=O)*)c3ccc(=[N+](CC)CC)cc-3oc2c1 Where only a bound is given, the exact number is not on record here.

In assay [1], RPtag(small) Nd2, k3a, e18a (peptide) gave a Kd of 0.88 nM. Moreover, in assay [2], the association rate constant (kon) is 433000 M⁻¹ s⁻¹. Further, the off-rate (koff) in assay [3] was determined as 0.000533 s⁻¹.

For the molecule RhodamineB-GEKIPNFIPAELKLIT [RPtag(small) Cd5], in assay [1], the equilibrium dissociation constant (Kd) turned out to be 3.6 nM. The kon in assay [2] was 1.83e+06 M⁻¹ s⁻¹. In addition, in assay [3], the koff is 0.0065 s⁻¹.

In turn, RhodamineB-KIPNFIPAELKLITKANVQ [RPtag(small) Nd2, e18a] registered a Kd in assay [1] of 0.13 nM. Also, the association rate constant (kon) in assay [2] is 1.08e+06 M⁻¹ s⁻¹. The same molecule gave a koff in assay [3] of 0.000138 s⁻¹. Also, in assay [4], the “Keq (S-S*)” value amounted to 0.4, the “kf (S to S*)” value was 0.044 min⁻¹ and the “kr (S* to S)” value worked out at 0.13 min⁻¹.

Turning to RhodamineB-RIANFIPAELKLITKANVQ [RPtag(small) Nd2, k3r, p5a, e18a], the dissociation constant (Kd) in assay [1] stood at 0.26 nM. Further, in assay [2], the association rate constant (kon) is 567000 M⁻¹ s⁻¹. The koff in assay [3] turned out to be 0.000217 s⁻¹.

In assay [1], RhodamineB-KIPNFIPAELKLITKENVQ [RPtag(small) Nd2] came in with a Kd of 0.067 nM. In addition, the association rate constant (kon) in assay [2] is 883000 M⁻¹ s⁻¹. Further, in assay [3], the off-rate (koff) is 5.83e-05 s⁻¹. Besides, in assay [4], the “Keq (S-S*)” value was 0.7, the “kf (S to S*)” value is 0.063 min⁻¹ and the “kr (S* to S)” value was 0.086 min⁻¹.

For the molecule RhodamineB-GEKIPNFIPAELKLI [RPtag(small) Cd6], the Kd in assay [1] was 200 nM. Besides, in assay [3], the off-rate constant (koff) was greater than 0.0333 s⁻¹.

As for RhodamineB-PAELKLITKE [RPtag(small) Nd8, Cd3], binding in assay [1] was put at a Kd of 11 nM. The koff in assay [3] is greater than 0.0333 s⁻¹. In assay [4], the “Keq (S-S*)” value came out at 6.5, the “kf (S to S*)” value is 0.095 min⁻¹ and the “kr (S* to S)” value amounted to 0.015 min⁻¹.

In assay [1], RhodamineB-PAELKLITKA [RPtag(small) Nd8, Cd3, e18a] yielded a Kd of 13 nM. In assay [3], this molecule gave a koff greater than 0.0333 s⁻¹.

In turn, RhodamineB-GAKIPNFIPAELKLITKENVQ [RPtag(small) e2a] showed a Kd in assay [1] of 0.1 nM. Further, the kon in assay [2] is 850000 M⁻¹ s⁻¹. Further, in assay [3], the koff is 8.83e-05 s⁻¹. In addition, in assay [4], the “Keq (S-S*)” value is 1.9, the “kf (S to S*)” value came to 0.084 min⁻¹ and the “kr (S* to S)” value was found to be 0.044 min⁻¹.

In the case of RhodamineB-GEKIPNFIPAELKAITKENVQ [RPtag(small) l14a], in assay [1], the affinity, expressed as Kd, was 8.9 nM. Further, the off-rate (koff) in assay [3] is greater than 0.0333 s⁻¹. For the same molecule, in assay [4], the “Keq (S-S*)” value was determined as 1.8, the “kf (S to S*)” value was 0.075 min⁻¹ and the “kr (S* to S)” value came to 0.044 min⁻¹.

Molecule RhodamineB-GEKIPNFIPAELKLITAENVQ [RPtag(small) k17a] yielded a dissociation constant (Kd) in assay [1] of 0.54 nM. The kon in assay [2] is 167000 M⁻¹ s⁻¹. The off-rate constant (koff) in assay [3] amounted to 9.5e-05 s⁻¹.

For RhodamineB-GEKIPNFIPAELKLITKANVQ [RPtag(small) e18a], in assay [1], the affinity, expressed as Kd, was 0.056 nM. The association rate constant (kon) in assay [2] is 2.67e+06 M⁻¹ s⁻¹. Also, in assay [3], the dissociation rate constant (koff) came to 0.000145 s⁻¹. Further, in assay [4], the “Keq (S-S*)” value amounted to 1.1, the “kf (S to S*)” value turned out to be 0.054 min⁻¹ and the “kr (S* to S)” value was found to be 0.048 min⁻¹.

In the case of RhodamineB-GEKIPNAIPAELKLITKENVQ [RPtag(small) f7a], the equilibrium dissociation constant (Kd) in assay [1] worked out at 2 nM. The kon in assay [2] is 517000 M⁻¹ s⁻¹. For the same molecule, the koff in assay [3] was 0.00105 s⁻¹. Besides, in assay [4], the “Keq (S-S*)” value was found to be 2.2, the “kf (S to S*)” value came to 0.08 min⁻¹ and the “kr (S* to S)” value was found to be 0.036 min⁻¹.

Regarding RhodamineB-GEKAPNFIPAELKLITKENVQ [RPtag(small) i4a], the Kd in assay [1] was 0.26 nM. In assay [2], the kon is 400000 M⁻¹ s⁻¹. This molecule also registered a koff in assay [3] of 0.0001 s⁻¹. Also, in assay [4], the “Keq (S-S*)” value amounted to 0.9, the “kf (S to S*)” value was 0.086 min⁻¹ and the “kr (S* to S)” value stood at 0.098 min⁻¹.

As for RhodamineB-GEAIPNFIPAELKLITKENVQ [RPtag(small) k3a], binding in assay [1] was characterised by a dissociation constant (Kd) of 0.49 nM. Besides, the kon in assay [2] was 183000 M⁻¹ s⁻¹. This molecule gave a koff in assay [3] of 8.83e-05 s⁻¹.

For the molecule RhodamineB-GEKIPNFIPAALKLITKENVQ [RPtag(small) e11a], the affinity in assay [1], expressed as Kd, was 0.8 nM. Also, the association rate constant (kon) in assay [2] is 76700 M⁻¹ s⁻¹. The same molecule gave a koff in assay [3] of 0.000112 s⁻¹. In addition, in assay [4], the “Keq (S-S*)” value came out at 1.9, the “kf (S to S*)” value was 0.08 min⁻¹ and the “kr (S* to S)” value amounted to 0.042 min⁻¹.

Molecule RhodamineB-NFIPAELKLITKENVQ [RPtag(small) Nd5] showed a Kd in assay [1] of 0.59 nM. For the same molecule, the kon in assay [2] was 1.6e+06 M⁻¹ s⁻¹. The molecule further gave a dissociation rate constant (koff) in assay [3] of 0.000933 s⁻¹.

Turning to RhodamineB-LITKENVQ [RPtag(small) Nd13], binding in assay [1] was put at a Kd of 84000 nM. In addition, in assay [3], the dissociation rate constant (koff) was greater than 0.0333 s⁻¹.

Take RhodamineB-AIANFIPAELKLITKENVQ [RPtag(small) Nd2, k3a, p5a]: binding in assay [1] was characterised by a dissociation constant (Kd) of 0.55 nM. In addition, in assay [2], the kon was 400000 M⁻¹ s⁻¹. Moreover, in assay [3], the koff amounted to 0.00015 s⁻¹.

In assay [1], RhodamineB-IANFIPAELKLITKANVQ [RPtag(small) Nd3, p5a, e18a] came in with a Kd of 0.63 nM. For the same molecule, the kon in assay [2] was 1.53e+06 M⁻¹ s⁻¹. In addition, in assay [3], the koff was 0.000967 s⁻¹.

As for RhodamineB-IPNFIPAELKLITKENVQ [RPtag(small) Nd3], in assay [1], binding was put at a Kd of 0.14 nM. Moreover, in assay [2], the kon is 1.47e+06 M⁻¹ s⁻¹. The molecule also had a dissociation rate constant (koff) in assay [3] of 0.0002 s⁻¹.

As to RhodamineB-FIPAELKLITKE [RPtag(small) Nd6, Cd3], the Kd in assay [1] came to 7.3 nM. In assay [3], this molecule registered a dissociation rate constant (koff) greater than 0.0333 s⁻¹.

Regarding RhodamineB-FIPAELKLITKA [RPtag(small) Nd6, Cd3, e18a], in assay [1], the Kd amounted to 8.2 nM. The molecule further had a koff in assay [3] greater than 0.0333 s⁻¹.

In turn, RhodamineB-KLITKENVQ [RPtag(small) Nd12] registered a Kd in assay [1] of 520 nM. For the same molecule, the koff in assay [3] is greater than 0.0333 s⁻¹.

Take RhodamineB-FIPAELKLITK [RPtag(small) Nd6, Cd4]: in assay [1], binding was put at a Kd of 9.9 nM. In assay [3], the off-rate (koff) is greater than 0.0333 s⁻¹.

RhodamineB-FIPAELKLITKENVQ [RPtag(small) Nd6]: the equilibrium dissociation constant (Kd) in assay [1] was determined as 0.54 nM. Also, the association rate constant (kon) in assay [2] was 2e+06 M⁻¹ s⁻¹. For the same molecule, in assay [3], the koff was determined as 0.00108 s⁻¹.

Regarding RhodamineB-IPAELKLITKENVQ [RPtag(small) Nd7], the Kd in assay [1] worked out at 2.4 nM. Moreover, the kon in assay [2] is 300000 M⁻¹ s⁻¹. The same molecule came in with an off-rate (koff) in assay [3] of 0.0007 s⁻¹.

The molecule RhodamineB-ELKLITKE [RPtag(small) Nd10, Cd3] displayed a Kd in assay [1] of 57 nM. In assay [3], this molecule showed a koff greater than 0.0333 s⁻¹. Also, in assay [4], the “kf (S to S*)” value came to 0.32 min⁻¹ and the “kr (S* to S)” value was determined as 0.05 min⁻¹.

Turning to RhodamineB-ELKLITKA [RPtag(small) Nd10, Cd3, e18a], in assay [1], the affinity, expressed as Kd, was 71 nM. In assay [3], this molecule came in with an off-rate constant (koff) greater than 0.0333 s⁻¹.

Turning to RhodamineB-LKLITKENVQ [RPtag(small) Nd11], the Kd in assay [1] turned out to be 16 nM. Further, the kon in assay [2] was 1.18e+06 M⁻¹ s⁻¹. This molecule returned a koff in assay [3] of 0.02 s⁻¹.

The molecule RhodamineB-ELKLIT [RPtag(small) Nd10, Cd5] came in with a dissociation constant (Kd) in assay [1] of 250 nM. In assay [3], this molecule gave a koff greater than 0.0333 s⁻¹.

As for RhodamineB-GEKIPNFIPAELKL [RPtag(small) Cd7], binding in assay [1] was put at a Kd of 30000 nM. In assay [3], this molecule came in with a koff greater than 0.0333 s⁻¹.

With RhodamineB-PNFIPAELKLITKENVQ [RPtag(small) Nd4], the Kd in assay [1] worked out at 0.3 nM. For the same molecule, the association rate constant (kon) in assay [2] is 1.57e+06 M⁻¹ s⁻¹. In assay [3], this molecule showed a koff of 0.000467 s⁻¹.

The molecule RhodamineB-ELKLITKENVQ [RPtag(small) Nd10] displayed a Kd in assay [1] of 5.9 nM. Also, the kon in assay [2] was 717000 M⁻¹ s⁻¹. The same molecule gave a koff in assay [3] of 0.00417 s⁻¹.

As to RhodamineB-PAELKLITKENVQ [RPtag(small) Nd8], the dissociation constant Kd in assay [1] was 0.59 nM. Also, the kon in assay [2] is 1.55e+06 M⁻¹ s⁻¹. The koff in assay [3] was 0.000917 s⁻¹.

In turn, RhodamineB-AELKLITKENVQ [RPtag(small) Nd9] displayed a Kd in assay [1] of 4.9 nM. For the same molecule, the kon in assay [2] is 1.37e+06 M⁻¹ s⁻¹. The molecule also yielded an off-rate (koff) in assay [3] of 0.00667 s⁻¹.
